One assay deals with T1, ScCdc14^P433A/K435A (S. cerevisiae, UniProt Q00684 1-449, P433A | K435A).
T1 construct: source: E. coli, purified (HisTrap nickel sepharose)
T1 sequence (looked up): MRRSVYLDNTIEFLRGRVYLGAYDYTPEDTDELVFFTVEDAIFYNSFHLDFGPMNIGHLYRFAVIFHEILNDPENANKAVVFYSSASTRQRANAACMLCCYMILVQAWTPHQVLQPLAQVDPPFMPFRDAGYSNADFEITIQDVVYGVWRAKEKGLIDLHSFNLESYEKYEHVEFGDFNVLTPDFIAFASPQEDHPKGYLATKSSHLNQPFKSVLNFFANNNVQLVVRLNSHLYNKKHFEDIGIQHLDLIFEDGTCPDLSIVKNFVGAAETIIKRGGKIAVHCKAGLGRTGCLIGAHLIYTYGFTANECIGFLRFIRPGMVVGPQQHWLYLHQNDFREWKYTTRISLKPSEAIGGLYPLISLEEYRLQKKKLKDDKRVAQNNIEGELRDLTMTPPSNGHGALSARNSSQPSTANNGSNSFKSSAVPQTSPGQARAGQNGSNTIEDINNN
The note with it: both partners purified.

Another assay has as its target T2, ScCdc14^1-449 (S. cerevisiae, UniProt Q00684 1-449).
T2 construct: Expressed from pDEST17; also called Saccharomyces cerevisiae Cdc14 truncation that retains the SLiCE motif; source: E. coli, purified (HisTrap nickel sepharose)
T2 sequence (looked up): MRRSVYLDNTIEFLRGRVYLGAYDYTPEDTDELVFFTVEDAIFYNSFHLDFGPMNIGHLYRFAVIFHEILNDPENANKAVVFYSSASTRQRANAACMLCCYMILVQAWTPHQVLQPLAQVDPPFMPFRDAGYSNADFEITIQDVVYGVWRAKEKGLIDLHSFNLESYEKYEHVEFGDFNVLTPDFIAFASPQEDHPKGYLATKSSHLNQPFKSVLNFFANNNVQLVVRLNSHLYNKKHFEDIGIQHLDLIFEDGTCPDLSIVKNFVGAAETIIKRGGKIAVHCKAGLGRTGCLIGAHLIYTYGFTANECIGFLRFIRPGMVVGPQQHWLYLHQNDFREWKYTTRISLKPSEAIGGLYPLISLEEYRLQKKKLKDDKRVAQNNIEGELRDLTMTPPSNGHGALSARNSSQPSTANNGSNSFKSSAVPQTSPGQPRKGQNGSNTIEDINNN
The note with it: both partners purified.

Starred links: 1 amine or outer side, 2 acyl side, 3 side chain; linkers in the order of their positions; H or OH if unused. Non-standard residues stand in square brackets, D forms with d. No end group written: not given here. pCF2‑Ser = (α,α-difluoromethylene)phosphonoserine, O=C([C@H](CC(F)(F)P(=O)(O)O)N[*:1])[*:2]

As usually defined, the Kd is the equilibrium constant for the complex coming apart. The low end stands for a tighter complex, the high end for a looser complex. Consider EV[pCF2‑Ser]PTKR [EV(pCF2-Ser)PTKR], for which the Kd in the assay with ScCdc14^P433A/K435A turned out to be 13 ± 4 µM; in the assay with ScCdc14^1-449, 6 ± 2 µM.

(Values after publication PMC11407943, “Cdc14 phosphatases use an intramolecular pseudosubstrate motif to stimulate and regulate catalysis” (The Journal of Biological Chemistry, 2024).)
